23 sequences from the DeepSol protein solubility set can be followed below.

This data set in a line: soluble on expression in E. coli; label from the status in PepcDB or PDB records.
Take “SLQKEANKTYHSSLKDGKLILLLDLDNTLLQATSFAKFNMELPLENFVDDNGEAELYKFYLPQYNFFYYLKFRPYVRQFLQILSLYYELAIYTNATREYADVVIAILDPDRTIFSDRIVARCSSTDRDENKYFSRIYPNVDPKYVIAFDDRKDVWIDIPQSHILKAEHYNFFELSKYDIIS”: the “soluble on expression in E. coli” value is listed as “not soluble”. Under “SLQLHFTNDALPDNVSTDFQNLNKFSEQQFVSLTDILYQFLLEPKESERFLHQLTEFAGENGMSAGPLRALMKSILLLPHGALKRNLTAEQIKLDLLSLGLNEDKASHFSDQWRVHYPVLARLAVGQTLMVNQLVDMEWKFGVTVGTSELQKTGNIFLQLKLVIRKGNMTENVYMELTLPQFYSFLHEMERAKASMDCFS” stands “soluble”; under “SLQSIIGKHKDEGKITPEYLKKIDAYWRAANFISVGQLYLLDNPLLREPLKPEHLKRKVVGHWGTIPGQNFIYAHLNRVIKKYDLDMIYVSGPGHGGQVMVSNSYLDGTYSEVYPNVSRDLNGLKKLCKQFSFPGGISSHMAPETPGSINEGGELGYSLAHSFGAVFDNPDLITACVVGDGEAETGPLATSWQANKFLNPVTDGAVLPILHLNGYKISNPTVLSRIPKDELEKFFEGNGWKPYFVEGEDPETMHKLMAETLDIVTEEILNIQKNARENNDCSRPKWPMIVLRTPKGWTGPKFVDGVPNEGSFRAHQVPLAVDRYHTENLDQLEEWLKSYKPEELFDENYRLIPELEELTPKGNKRMAANLHANGGLLLRELRTPDFRDYAVDVPTPGSTVKQDMIELGKYVRDVVKLNEDTRNFRIFGPDETMSNRLWAVFEGTKRQWLSEIKEPNDEFLSNDGRIVDSMLSEHLCEGWLEGYLLTGRHGFFASYEAFLRIVDSMITQHGKWLKVTSQLPWRKDIASLNLIATSNVWQQDHNGYTHQDPGLLGHIVDKKPEIVRAYLPADANTLLAVFDKCLHTKHKINLLVTSKHPRQQWLTMDQAVKHVEQGISIWDWASNDKGQEPDVVIASCGDTPTLEALAAVTILHEHLPELKVRFVNVVDMMKLLPENEHPHGLSDKDYNALFTTDKPVIFAFHGFAHLINQLTYHRENRNLHVHGYMEEGTITTPFDMRVQNKLDRFNLVKDVVENLPQLGNRGAHLVQLMNDKLVEHNQYIREVGEDLPEITNWQWHV”, “soluble”; under “SLRLKISLLSPADSFEIDLNHSYHLASAIYRAIERADPSLSIELHKPDVPKFFTFSKLFIPKRKFRIEGEKMVSDCEEAYFFFSTLRNEVAASLVEGLLSKPEIRICGVDFIVSEVSVLPEREVKGREKFVTLSPIYASTSVGENGRRRIFDLYPKDSKFYEVILQNLVKKYVLYYKSAPENLDFHMKPLNVKAKRIRLKDTFHRCVEMVFKAEGSPELLDVGYKAGFGSKNSMGFGMVKVV”, “soluble”.

“SLSDTQEPVKLRIVHFNDVYNVFSISGGLGGGAAPFCTGLREKRGPDGLVLFSGDIFSPSPLSEASKGRQMAELLNYLDVHTSCYGNHDLDFGWEWLELLAGTTKCKWVMSNARSKIGGGVLANAQRYRIFEWGTTQRVVVGIMALIEEDWIDTLNAPDQEEIVYQDFVEAGREMVALFRRRGCDLVIALTHMRWNNDEKLAREVDGIDLILGGHDHAYVTKLVNGTAVIKSGSDFREFSAITLTPKLHLREQGTSHATGFSADHDSLAADGKNGYPVAFSGSTGGVAEVDGLCRQHGDSSHAVKRAGVCECLGRTQPVRQTKPEVVEGIHTEETQPAKLWSSGRWWLSCEKVCVSADRFEADDSVMEMLVRYQTTYGNSQGCVLGAFPVLLETRFCEVRTRECNSGNWLADLMREYYGVDVALYNSGGIRSDCVFAEGEVVTSETLHAILSGTRQLDVIAVPGNLFKSILETSVSRWPQLEGRFLQVSGLRFVFEGSARVGERVLADEIQFRNRETGDWEPLVPDRVYSVATATFLARGGDGLSVLVDCPPLDTPQRNIRDLSELARLWFCRQHRKCGFEDVEEIPPRECEWIDR”: the “soluble on expression in E. coli” value was “not soluble”. Next, “SLSERVRTYWIIIELKHKAREKPYDSKSLRTALQKEITTRYQLDPKFITSILYENNVITIDLVQNSSQKTQNDVDIADVAYYFEKDVKGESLFHSKKMDLTVNGEQLDLDPGQTLIYYVDEKAPEFSEG”: “soluble”; “SLSGNGFDAILALSHRTSHTTYGNPFFSDVIQSISAVSEQNNFDLILQTAKTPEEELEKCAKKIQEKMIRGIIILSSTMDETLLFELDQYNIPIVVIGKVGNDYTNIYSVDTDNFQDSYDLVETLIKNGHRHIGCLHAPTEVYVSNDRLNGYRQCLFDHHLDIRNEWIIDGGFRLEDSMAAMNDLMKLRERPTAIFSTDALKSLSIYKVAEQSGKQIPDDLSIAGFSDPLLSSLFSPQLTRIDIPTNQLGIKATELLFQLIHHQYPEEKRIILSTEITLTDSI”: “soluble”.

Turning to “SLSLRPSPRLLCTATKQKNSGQNLEEDMGQSEQKADPPATEKTLLEEKVKLEEQLKETVEKYKRALADTENLRQRSQKLVEEAKLYGIQAFCKDLLEVADVLEKATQCVPKEEIKDDNPHLKNLYEGLVMTEVQIQKVFTKHGLLKLNPVGAKFDPYEHEALFHTPVEGKEPGTVALVSKVGYKLHGRTLRPALVGVVKEA”, the “soluble on expression in E. coli” value is listed as “soluble”. Consider “SLSSLEGQENSFTINSVDMKSLPDWTVQNGKNLTLQCFADVSTTSHVKPQHQMLFYKDDVLFYNISSMKSTESYFIPEVRIYDSGTYKCTVIVNNKEKTTAEYQLLVEGVPSPRVTLDKKEAIQGGIVRVNCSVPEEKAPIHFTIEKLELNEKMVKLKREKNSRDQNFVILEFPVEEQDRVLSFRCQARIISGIHMQTSESTKSELVTVTESFSTPKFHISPTGMIMEGAQLHIKCTIQVTHLAQEFPEIIIQKDKAIVAHNRHGNKAVYSVMAMVEHSGNYTCKVESSRISKVSSIVVNITELFSKPELESSFTHLDQGERLNLSCSIPGAPPANFTIQKEDTIVSQTQDFTKIASKSDSGTYICTAGIDKVVKKSNTVQIVVCEMLS”, for which the “soluble on expression in E. coli” value was “soluble”.

Regarding “SLVYDGNNKLIADLGSEKRESVSADSIPLNLVNAITSIEDKRFFKHRGVDIYRILGAAWHNLVSSNTQGGSTLDQQLIKLAYFSTNKSDQTLKRKSQEVWLALQMERKYTKEEILTFYINKVYMGNGNYGMRTTAKSYFGKDLKELSIAQLALLAGIPQAPTQYDPYKNP”, the “soluble on expression in E. coli” value is reported as “not soluble”. Regarding “SLYDGDCPLCMREVNMLMERNEKHGTIKFVDISSNDYSPEDNQGLDYKTVMGQIHAIQSDGNVVKGVEAFRRLYEEVGLGWVYTITKFEPIGKLADVVYDVWAKYRLQVTGRPSIEAILEARKKDKVGNKGYRFSVVVTFAR”, the “soluble on expression in E. coli” value is given as “soluble”.

In the case of “SMGAGGGGSAEQLDALVKKDKVVVFLKGTPEQPQCGFSNAVVQILRLHGVRDYAAYNVLDDPELRQGIKDYSNWPTIPQVYLNGEFVGGCDILLQMHQNGDLVEELKKLGIHSALLDE”, the “soluble on expression in E. coli” value was “soluble”. As for “SMNNKEVELYGGAITTVVPPGFIDASTLREVPDTQEVYVNSRRDEEEFEDGLATNESIIVDLLETVDKSDLKEAWQFHVEDLTELNGTTKWEALQEDTVQQGTKFTGLVMEVANKWGKPDLAQTVVIGVALIRLTQFDTDVVISINVPLTKEEASQASNKELPARCHAVYQLLQEMVRKFHVVDTSLFA”, the “soluble on expression in E. coli” value is given as “soluble”. “SMQPIVIHSSGKNYGFTIRAIRVYVGDSDIYTVHHIVWNVEEGSPACQAGLKAGDLITHINGEPVHGLVHTEVIELLLKSGNKVSITTTPFENTETSV”: the “soluble on expression in E. coli” value is on record as “soluble”. With “SMQQRKVLTLEKEDNQTFGFEIQTYGLHHREEQRVEMVTFVCRVHESSPAQLAGLTPGDTIASVNGLNVEGIRHREIVDIIKASGNVLRLETLYSSTL”, the “soluble on expression in E. coli” value is “soluble”. Next, “SMRTAQEVETYRRSKEITVRGHNCPKPVLNFYEANFPANVMDVIARQNFTEPTAIQAQGWPVALSGLDMVGVAQTGSGKTLSYLLPAIVHINHQPFLERGDGPICLVLAPTRELAQQVQQVAAEYCRACRLKSTCIYGGAPKGPQIRDLERGVEICIATPGRLIDFLECGKTNLRRTTYLVLDEADRMLDMGFEPQIRKIVDQIRPDRQTLMWSATWPKEVRQLAEDFLKDYIHINIGALEL”: “soluble”; “SNAIGLIITALPEPYWIVLHDRIVNVISSSSLTSETEWVGYPFRLFDFTACHQSYSEMSCSYTLALAHAVWHHSSIGQLSLIPKFLTEALLPVVKTEFQLLYVYHLVGPFLQRFQQERTRCMIEIGVAFYDMLLNVDQCSTHLNYMDPICDFLYHMKYMFTGDSVKEQVEKIICNLKPALKLRLRFITHISKMEPAVPPQALNSGSPAPQSNQVPASLPVTQ”: “soluble”. Consider “SNAKVTVGKSAPYFSLPNEKGEKLSRSAERFRNRYLLLNFWASWCDPQPEANAELKRLNKEYKKNKNFAMLGISLDIDREAWETAIKKDTLSWDQVCDFTGLSSETAKQYAILTLPTNILLSPTGKILARDIQGEALTGKLKELLKTE”, for which the “soluble on expression in E. coli” value was “soluble”. In the case of “SNALNLPYDEHADAWTQVKKALAAGKRTHKPTLLVFGANWCTDCRALDKSLRNQKNTALIAKHFEVVKIDVGNFDRNLELSQAYGDPIQDGIPAVVVVNSDGKVRYTTKGGELANARKMSDQGIYDFFAKITE”, the “soluble on expression in E. coli” value was “soluble”. Next, “SNAMAAKKPLFEVIASKIKDSINRDEYKTGMLMPNETALQEIYSSSRTTIRRAVDLLVEEGLVVRKNGVGLYVQPKLTAQNILEMTGVMKNDTNENLKKDIKDFYIRKAGKFYAEIFGMKENELVYSIKFVQKSEHGATLDRLILPLGLYPDLQAKDFQIINIIELVNSGKYKLFELEQELQLILAGNEQIKNMHLNENDPVFKLSSVFYAENDMPIAIQYHYEDAESTKYVVDFN”: “soluble”. On to “SNAMDKYPFLREAGSSFKDRDVTKMSDLIATWDGQDIKGPALIGVPLSKSSISHSGASFAPGTIRQALKHSSAYSAELGEHVVSELLYDLGDIDIHVTDIVKSHHHIFQTMHALLSDHPDWVPLILGGDNSISYSTIKAIAQTKGTTAVIQFDAHHDVRNTEDGGPTNGTPFRRLLDEEIIEGQHLIQLGIREFSNSQAYEAYAKKHNVNIHTMDMIREKGLIPTIKEILPVVQDKTDFIFISVDMDVLDQSHAPGCPAIGPGGLYTDELLEAVKYIAQQPNVAGIEIVEVDPTLDFRDMTSRAAAHVLLHALKGMKLSPFK”, for which the “soluble on expression in E. coli” value is given as “soluble”. Take “SNAMEKYILSIDQGTTSSRAILFNQKGEIAGVAQREFKQYFPQSGWVEHDANEIWTSVLAVMTEVINENDVRADQIAGIGITNQRETTVVWDKHTGRPIYHAIVWQSRQTQSICSELKQQGYEQTFRDKTGLLLDPYFAGTKVKWILDNVEGAREKAENGDLLFGTIDTWLVWKLSGKAAHITDYSNASRTLMFNIHDLEWDDELLELLTVPKNMLPEVKASSEVYGKTIDYHFYGQEVPIAGVAGDQQAALFGQACFERGDVKNTYGTGGFMLMNTGDKAVKSESGLLTTIAYGIDGKVNYALEGSIFVSGSAIQWLRDGLRMINSAPQSESYATRVDSTEGVYVVPAFVGLGTPYWDSEARGAIFGLTRGTEKEHFIRATLESLCYQTRDVMEAMSKDSGIDVQSLRVDGGAVKNNFIMQFQADIVNTSVERPEIQETTALGAAFLAGLAVGFWESKDDIAKNWKLEEKFDPKMDEGEREKLYRGWKKAVEATQVFKTE”: the “soluble on expression in E. coli” value is “soluble”. Under “SNAMHNHNNRLVITPGEPAGVGPDLAITLAQQDWPVELVVCADPALLLARASQLNLPLQLREYQADQPAIAQQAGSLTILPVKTAVNVVPGKLDVGNSHYVVETLAKACDGAISGEFAALVTGPVQKSIINDAGIPFIGHTEFFADRSHCQRVVMMLATEELRVALATTHLPLLAVPGAITQASLHEVITILDNDLKTKFGITQPQIYVCGLNPHAGEGGHMGHEEIDTIIPALNTLRQQGINLIGPLPADTLFQPKYLQHADAVLAMYHDQGLPVLKYQGFGRAVNITLGLPFIRTSVDHGTALELAATGTADVGSFITALNLAIKMINNSNE” stands “soluble”.
